B1: CsDFR promoter W-box probe (dsDNA)
DNA 1: GCCCAAGCTCATATAGTCAAAAAAGTCAAAAAGCCAAAAAGTCAACCCACTTCCC
DNA 2: GGGAAGTGGGTTGACTTTTTGGCTTTTTGACTTTTTTGACTATATGAGCTTGGGC
B2: CCoAOMT promoter W-box probe (dsDNA)
DNA 1: TTTACTTAAAATATGGATTTTGACTTGTGATATAAAAAATTATAAATATTTT
DNA 2: AAAATATTTATAATTTTTTATATCACAAGTCAAAATCCATATTTTAAGTAAA

Target: CsWRKY57like (WRKY domain) (Camellia sinensis, UniProt A0A4S4EXI7 145-222)
Assay: EMSA; excess unlabeled probe abolishes binding; Biotin-labeled probes, 6% native PAGE; buffer, salt, pH and temperature not stated (cited refs 48, 49)
Conditions: protein: recombinant; tags: GST (pGEX-4T); label: biotin

CsWRKY57like (WRKY domain), sequence (A0A4S4EXI7 entry or part of it): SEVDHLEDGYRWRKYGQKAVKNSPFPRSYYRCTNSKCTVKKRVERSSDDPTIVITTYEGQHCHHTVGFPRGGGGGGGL

Binder	binding result
B1	binds
B2	binds

From article PMC9071374, “Identification of a WRKY transcriptional activator from Camellia sinensis that regulates methylated EGCG biosynthesis”
